Drawing on PMC9972320, this text covers binding result and Kd for four molecules.

By Kd is commonly meant the equilibrium constant for the complex coming apart.

Numbering of substitutions follows the chain as printed. Numbers in names are those of the source.

In one data set the target is MSI1 RRM12 (human, UniProt O43347 20-191). Kind of data set: ITC; 3 mM MgCl2; ITC: 20 mM HEPES pH 7.5, 150 mM NaCl, 3 mM MgCl2, 25 C; […]. Particulars: protein: recombinant, tags: GST tag (pGEX-6p-1) removed by PreScission.
Another data set concerns the target MSI1 RRM12 F63A/F65A (human, UniProt O43347 20-191, F63A;F65A). Kind of data set: ITC; not impaired; 3 mM MgCl2; ITC: 20 mM HEPES pH 7.5, 150 mM NaCl, 3 mM MgCl2, 25 C; 30 uM RNA in cell, 600 uM protein titrant. Particulars: protein: recombinant; tags: GST tag removed by PreScission; three-way junction with P4 and pseudoknots.
For the next data set, the target named is MSI1 RRM12 K21A/F23A (human, UniProt O43347 20-191, K21A;F23A). Described as above. Particulars: protein: recombinant; tags: GST tag removed by PreScission; three-way junction with P4 and pseudoknots.
Sequence of MSI1 RRM12 K21A/F23A (O43347 20-191 K21A/F23A): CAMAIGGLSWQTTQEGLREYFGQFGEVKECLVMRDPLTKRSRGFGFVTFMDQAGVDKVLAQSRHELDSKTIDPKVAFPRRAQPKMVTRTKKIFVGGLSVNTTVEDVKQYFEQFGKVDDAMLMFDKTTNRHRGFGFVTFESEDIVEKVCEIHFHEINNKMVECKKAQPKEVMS

Sequence of MSI1 RRM12 (O43347 20-191): as the sequence (O43347 20-191 K21A/F23A) above, with A2K, A4F counted along it
Sequence of MSI1 RRM12 F63A/F65A (O43347 20-191 F63A/F65A): as the sequence (O43347 20-191 K21A/F23A) above, with A2K, A4F, F44A, F46A counted along it

B1: ZIKV xrRNA2 P2M/P4M (structured_RNA)
RNA: GAUAGUCAGGCCCGAAAGGCCAUGGCACGGAAGAAGCCAUGCUGCCUGUGAGCCCCUCCCGAAAGGGAGU
On to B1, for which the binding result in the data set with MSI1 RRM12 (folded) is listed as “no binding”.

B2: ZIKV xrRNA2 (structured_RNA)
RNA: GAUAGUCAGGCCGAGAACGCCAUGGCACGGAAGAAGCCAUGCUGCCUGUGAGCCCCUCAGAGGACACUGAGU
Consider B2, for which the binding result in the data set with MSI1 RRM12 F63A/F65A and in the data set with MSI1 RRM12 K21A/F23A was “binds” each time. For the same molecule, the Kd in the data set with MSI1 RRM12 (three-way junction with P4 and pseudoknots) came to 1900 ± 800 nM.

B3: DENV4 xrRNA mutant (DxM) (structured_RNA)
RNA: UGUAGUCAGGCCGAGAACGCCACGGUUUGAGCAAACCGUGCUGCCUGUAGCUCCGCCAAUAAUGGGAGGCG
With B3, the Kd in the data set with MSI1 RRM12 (folded) stood at 2540 ± 310 nM.

B4: DENV4 xrRNA (structured_RNA)
RNA: B3 RNA with U3A, G13A, A14C, G15U, A16U, A17G, C18U
Regarding B4, the binding result in the data set with MSI1 RRM12 (folded) is “no binding”.
